Reference: US20250032605A1

Legend:
[1] = target: SARS-2^hg monomer (hyperglycosylated SARS-2 RBD) (SARS-CoV-2 (engineered)) (UniProt P0DTC2)
[2] = target: rsYNLF-34C (v2 resurfaced YNLF_34C RBD carrying SARS-2 residues 401-507) (bat sarbecovirus YNLF_34C; SARS-CoV-2)
[3] = target: SARS-2^hg monomer (hyperglycosylated SARS-2 RBD) (SARS-CoV-2 (engineered)) (UniProt P0DTC2); assay: BLI, Fab on FAB2G sensor, hyperglycosylated construct as analyte

Question: For B38 Fab, which Kd [1] is on record?
Answer: 2100 nM

Question: And the Kd [2]?
Answer: 1400 nM

Question: What about the fold decrease in affinity for B38 [3] of the same substance?
Answer: 2 fold
